Experimental data published in IntAct's records for PubMed 15743816.

B1: Serine/threonine-protein kinase STE20 (Saccharomyces cerevisiae), Q03497 (parent)
chain: MSNDPSAVSELPDKDSLDNGISNDNERAMGGNGDGGDGLRLPRTTGTLNVNALQKGTNAAHEAGGYKSMDPAKNAETTNDDDNNVVSLDDPIQFTRVSSSSVISGMSSSMSPHSNIDETKSLEAVTPNINTSNITPDHSADNTFSTINASESDHQFNDTLLSKLSLTDSTETIENNATVKHQQPVASSTVNSNKSSTDIRRATPVSTPVISKPSMTTTPRQINSASHSLSNPKHKQHKPKVKPSKPEAKSKPVSVKKSFPSKNPLKNSSPPKKQTEKSYYSSSSKKRKSGSNSGTLRMKDVFTSFVQNIKRNSQDDKRASSSSNNSSSSSITTALRISTPYNAKHIHHVGVDSKTGEYTGLPEEWEKLLTSSGISKREQQQNMQAVMDIVKFYQDVTETNGEDKMFKTFNTTTGLPGSPQVSTPPANSFNKFPPSTSDSHNYGSRTGTPMSNHVMSPTLNTDSSSANGKFIPSRPAPKPPSSASASAPIIKSPVMNSAANVSPLKQTHAPTTPNRTSPNRSSISRNATLKKEEQPLPPIPPTKSKTSPIISTAHTPQQVAQSPKAPAQETVTTPTSKPAQARSLSKELNEKKREERERRKKQLYAKLNEICSDGDPSTKYANLVKIGQGASGGVYTAYEIGTNVSVAIKQMNLEKQPKKELIINEILVMKGSKHPNIVNFIDSYVLKGDLWVIMEYMEGGSLTDVVTHCILTEGQIGAVCRETLSGLEFLHSKGVLHRDIKSDNILLSMEGDIKLTDFGFCAQINELNLKRTTMVGTPYWMAPEVVSRKEYGPKVDIWSLGIMIIEMIEGEPPYLNETPLRALYLIATNGTPKLKEPENLSSSLKKFLDWCLCVEPEDRASATELLHDEYITEIAEANSSLAPLVKLARLKKVAENMDADEDNDDDNDNEHINKTNNCDDNNDSKETVNLDVTEDDKQK
partner: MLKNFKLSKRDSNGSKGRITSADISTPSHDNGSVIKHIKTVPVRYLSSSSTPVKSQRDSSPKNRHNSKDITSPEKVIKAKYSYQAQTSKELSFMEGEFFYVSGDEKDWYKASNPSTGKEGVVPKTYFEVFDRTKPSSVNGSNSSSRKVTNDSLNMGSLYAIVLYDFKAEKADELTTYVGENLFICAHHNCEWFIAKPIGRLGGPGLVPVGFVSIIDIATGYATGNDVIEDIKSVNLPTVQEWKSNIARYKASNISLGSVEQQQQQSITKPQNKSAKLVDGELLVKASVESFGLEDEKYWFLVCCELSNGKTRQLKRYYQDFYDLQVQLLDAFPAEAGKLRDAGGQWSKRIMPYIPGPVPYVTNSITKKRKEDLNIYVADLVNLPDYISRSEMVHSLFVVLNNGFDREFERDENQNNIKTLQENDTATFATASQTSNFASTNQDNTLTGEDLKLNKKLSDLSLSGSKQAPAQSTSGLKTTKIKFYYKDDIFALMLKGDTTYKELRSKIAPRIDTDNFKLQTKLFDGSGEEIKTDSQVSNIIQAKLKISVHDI
B2: Serine/threonine-protein kinase STE20 (Saccharomyces cerevisiae), Q03497 (parent)
chain: B1 chain
partner: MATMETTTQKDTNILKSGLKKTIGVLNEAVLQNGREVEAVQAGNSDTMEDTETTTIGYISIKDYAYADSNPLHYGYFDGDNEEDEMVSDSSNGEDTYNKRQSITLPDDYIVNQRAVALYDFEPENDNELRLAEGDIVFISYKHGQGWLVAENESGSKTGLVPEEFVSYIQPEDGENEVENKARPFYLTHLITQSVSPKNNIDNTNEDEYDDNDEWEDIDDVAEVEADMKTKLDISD
B3: Bud emergence protein 1 (Saccharomyces cerevisiae), P29366 (parent)
chain: B1 partner
partner: B1 chain

Variants of: B1
Details: with bem1_yeast BEM1, P29366

Effect of a mutation on the interaction, decreasing interaction:
P472A
A476G
P477A
P480A
R474G
P479A
P475G;P477A
F470G
P475G
I471G
S473A

Variants of: B1
Details: with bem1_yeast BEM1, P29366
Remark: another data set of the same source

Effect of a mutation on the interaction, decreasing interaction:
P475G;P477A

Variants of: B2
Details: with nbp2_yeast NBP2, Q12163

Effect of a mutation on the interaction, decreasing interaction:
P475G;P477A

Variants of: B3
Details: with ste20_yeast STE20, Q03497

Effect of a mutation on the interaction, decreasing interaction:
MLKNFKLSKRDSNGSKGRITSADISTPSHDNGSVIKHIKTVPVRYLSSSSTPVKSQRDSSPKNRHNSKDITSPEKVIKAKYSYQAQTSKELSFMEGEFFYVSGDEKDWYKASNPSTGKEGVVPKTYFEVFDRTKPSSVNGSNSSSRKVTNDSLNMGSLYAIVLYDFKAEKADELTTYVGENLFICAHHNCEAFIAKPIGRLGGPGLVPVGFVSIIDIATGYATGNDVIEDIKSVNLPTVQEWKSNIARYKASNISLGSVEQQQQQSITKPQNKSAKLVDGELLVKASVESFGLEDEKYWFLVCCELSNGKTRQLKRYYQDFYDLQVQLLDAFPAEAGKLRDAGGQWSKRIMPYIPGPVPYVTNSITKKRKEDLNIYVADLVNLPDYISRSEMVHSLFVVLNNGFDREFERDENQNNIKTLQENDTATFATASQTSNFASTNQDNTLTGEDLKLNKKLSDLSLSGSKQAPAQSTSGLKTTKIKFYYKDDIFALMLKGDTTYKELRSKIAPRIDTDNFKLQTKLFDGSGEEIKTDSQVSNIIQAKLKISVHDI [W192A]
